Data: paper PMC4116151 (Biochemistry, 2014)

T1: YdiI (Escherichia coli, UniProt P77781)
T1 sequence (P77781 1-136): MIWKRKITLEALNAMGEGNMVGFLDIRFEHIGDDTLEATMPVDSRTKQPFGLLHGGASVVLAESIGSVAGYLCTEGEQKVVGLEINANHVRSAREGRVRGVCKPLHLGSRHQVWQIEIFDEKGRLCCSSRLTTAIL

T2: YbdB (Escherichia coli, UniProt P0A8Y8, M68V)
T2 sequence (P0A8Y8 1-137 M68V): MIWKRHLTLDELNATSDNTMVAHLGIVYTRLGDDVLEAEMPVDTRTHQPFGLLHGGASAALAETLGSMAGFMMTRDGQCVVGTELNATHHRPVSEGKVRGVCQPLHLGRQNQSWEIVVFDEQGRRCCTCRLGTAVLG

T3: YbdB (Escherichia coli, UniProt P0A8Y8)
T3 sequence (P0A8Y8 1-137): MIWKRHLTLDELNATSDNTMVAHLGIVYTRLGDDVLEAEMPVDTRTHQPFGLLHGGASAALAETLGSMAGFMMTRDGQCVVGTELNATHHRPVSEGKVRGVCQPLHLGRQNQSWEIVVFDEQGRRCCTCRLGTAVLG


Columns and labels:
YdiI [1] = target: T1, YdiI; assay: steady-state inhibition of thioester hydrolysis, DTNB coupled assay; format: biochemical
YdiI [2] = target: T1, YdiI; assay: steady-state kinetics, DTNB coupled assay at […] nm; format: biochemical; settings: pH 7.5, 25 °C; 50 mM K+HEPES, 1 mM DTNB
YbdB [3] = target: T2, YbdB; assay: steady-state kinetics, DTNB coupled assay at […] nm; format: biochemical; settings: pH 7.5, 25 °C; 50 mM K+HEPES, 1 mM DTNB
YbdB [4] = target: T3, YbdB; assay: steady-state inhibition of thioester hydrolysis, DTNB coupled assay; format: biochemical
YbdB [5] = target: T3, YbdB; assay: steady-state inhibition of 4-hydroxybenzoyl-CoA hydrolysis, direct […] nm assay; format: biochemical
YdiI [6] = target: T1, YdiI; assay: as above; format: biochemical
purified protein = substrate: CC(C)(COP(=O)(O)OP(=O)(O)OC[C@H]1O[C@@H](n2cnc3c(N)ncnc32)[C@H](O)[C@@H]1OP(=O)(O)O)[C@@H](O)C(=O)NCCC(=O)NCCSC(=O)c1ccccc1; assay: purified protein; settings: pH 7.5, 25 °C, 50 mM K+HEPES, 1 mM DTNB

| Molecule | Km (purified protein) [µM] | other results |
| --- | --- | --- |
| CCCCCCCCCC(=O)CSCCNC(=O)CCNC(=O)[C@H](O)C(C)(C)COP(=O)(O)OP(=O)(O)OC[C@H]1O[C@@H](n2cnc3c(N)ncnc32)[C@H](O)[C@@H]1OP(=O)(O)O [compound 6, UDO-CoA] |  | Ki (YdiI [1]): 12.2 ± 0.5 µM |
| CC(C)(COP(=O)(O)OP(=O)(O)OC[C@H]1O[C@@H](n2cnc3c(N)ncnc32)[C@H](O)[C@@H]1OP(=O)(O)O)[C@@H](O)C(=O)NCCC(=O)NCCSC(=O)c1ccccc1 [compound 3, benzoyl-CoA] |  | Km (YdiI [2]): 25 ± 3 µM; Km (YbdB [3]): 24 ± 2 µM |
| CC(C)(COP(=O)(O)OP(=O)(O)OC[C@H]1O[C@@H](n2cnc3c(N)ncnc32)[C@H](O)[C@@H]1OP(=O)(O)O)[C@@H](O)C(=O)NCCC(=O)NCCSCC(=O)c1ccccc1 [phenacyl-CoA] |  | Ki (YbdB [4]): 65 ± 6 µM; Ki (YdiI [1]): 7.8 ± 0.4 µM |
| CC(C)(COP(=O)(O)OP(=O)(O)OC[C@H]1O[C@@H](n2cnc3c(N)ncnc32)[C@H](O)[C@@H]1OP(=O)(O)O)[C@@H](O)C(=O)NCCC(=O)NCCSCC(=O)c1ccc(O)cc1O [compound 5, 2,4-DHP-CoA] |  | Ki (YbdB [4]): 5.9 ± 6 µM; Ki (YdiI [1]): 2.5 ± 0.2 µM |
| CC(C)(COP(=O)(O)OP(=O)(O)OC[C@H]1O[C@@H](n2cnc3c(N)ncnc32)[C@H](O)[C@@H]1OP(=O)(O)O)[C@@H](O)C(=O)NCCC(=O)NCCS [compound 4, CoA] |  | Ki (YbdB [5]): 210 ± 10 µM; Ki (YdiI [6]): 16 ± 1 µM |
| YbdB (Escherichia coli K-12) (protein) MIWKRHLTLDELNATSDNTMVAHLGIVYTRLGDDVLEAEMPVDTRTHQPFGLLHGGASAALAETLGSMAGFMMTRDGQCVVGTELNATHHRPVSEGKVRGVCQPLHLGRQNQSWEIVVFDEQGRRCCTCRLGTAVLG | 12 ± 1 |  |
| YdiI (Escherichia coli K-12; S64A) (protein) MIWKRKITLEALNAMGEGNMVGFLDIRFEHIGDDTLEATMPVDSRTKQPFGLLHGGASVVLAEAIGSVAGYLCTEGEQKVVGLEINANHVRSAREGRVRGVCKPLHLGSRHQVWQIEIFDEKGRLCCSSRLTTAIL | 11.9 ± 0.9 |  |
| YdiI (Escherichia coli K-12; H54F) (protein) MIWKRKITLEALNAMGEGNMVGFLDIRFEHIGDDTLEATMPVDSRTKQPFGLLFGGASVVLAESIGSVAGYLCTEGEQKVVGLEINANHVRSAREGRVRGVCKPLHLGSRHQVWQIEIFDEKGRLCCSSRLTTAIL | 16.8 ± 0.9 |  |
| YdiI (Escherichia coli K-12; S109A) (protein) MIWKRKITLEALNAMGEGNMVGFLDIRFEHIGDDTLEATMPVDSRTKQPFGLLHGGASVVLAESIGSVAGYLCTEGEQKVVGLEINANHVRSAREGRVRGVCKPLHLGARHQVWQIEIFDEKGRLCCSSRLTTAIL | 14.2 ± 0.2 |  |
| YdiI (Escherichia coli K-12; Q48N) (protein) MIWKRKITLEALNAMGEGNMVGFLDIRFEHIGDDTLEATMPVDSRTKNPFGLLHGGASVVLAESIGSVAGYLCTEGEQKVVGLEINANHVRSAREGRVRGVCKPLHLGSRHQVWQIEIFDEKGRLCCSSRLTTAIL | 12.6 ± 0.8 |  |
| YdiI (Escherichia coli K-12; H89A) (protein) MIWKRKITLEALNAMGEGNMVGFLDIRFEHIGDDTLEATMPVDSRTKQPFGLLHGGASVVLAESIGSVAGYLCTEGEQKVVGLEINANAVRSAREGRVRGVCKPLHLGSRHQVWQIEIFDEKGRLCCSSRLTTAIL | 180 ± 10 |  |
| YdiI (Escherichia coli K-12; S67A) (protein) MIWKRKITLEALNAMGEGNMVGFLDIRFEHIGDDTLEATMPVDSRTKQPFGLLHGGASVVLAESIGAVAGYLCTEGEQKVVGLEINANHVRSAREGRVRGVCKPLHLGSRHQVWQIEIFDEKGRLCCSSRLTTAIL | 12.6 ± 0.2 |  |
| YdiI (Escherichia coli K-12; H54A) (protein) MIWKRKITLEALNAMGEGNMVGFLDIRFEHIGDDTLEATMPVDSRTKQPFGLLAGGASVVLAESIGSVAGYLCTEGEQKVVGLEINANHVRSAREGRVRGVCKPLHLGSRHQVWQIEIFDEKGRLCCSSRLTTAIL | 100 ± 8 |  |
| YdiI (Escherichia coli K-12; R91A) (protein) MIWKRKITLEALNAMGEGNMVGFLDIRFEHIGDDTLEATMPVDSRTKQPFGLLHGGASVVLAESIGSVAGYLCTEGEQKVVGLEINANHVASAREGRVRGVCKPLHLGSRHQVWQIEIFDEKGRLCCSSRLTTAIL | 23 ± 3 |  |
| YdiI (Escherichia coli K-12; E63D) (protein) MIWKRKITLEALNAMGEGNMVGFLDIRFEHIGDDTLEATMPVDSRTKQPFGLLHGGASVVLADSIGSVAGYLCTEGEQKVVGLEINANHVRSAREGRVRGVCKPLHLGSRHQVWQIEIFDEKGRLCCSSRLTTAIL | 120 ± 10 |  |
